± gives the uncertainty stated by the source.
B1: Peripheral plasma membrane protein CASK, residues 488 to 569; numbered along this chain, O14936 (parent)
chain: VRLVQFQKNTDEPMGITLKMNELNHCIVARIMHGGMIHRQGTLHVGDEIREINGISVANQTVEQLQKMLREMRGSITFKIVP

Variants of: B1
Experiment: abundance fitness (aPCA) (normalised: wild type 0, dead -1); higher = more abundant; growth selection in yeast, the domain comes from the species named
Settings: Homo sapiens
With VRLVQFQKNTDEPMGITLKMNELNHCIVARIMHGGMIHRQGTLHVGDEIREINGISVANQTVEQLQKMLREMRGSITFKISP [V81S] the abundance fitness was -0.044 ± 0.032. For VRLVQFQKNTDEPMGITLKMNELNHCIVARIMHGGMIHRQGTLHVGDEIREINGISVANQTVEQLQKMLREMRGSITFKIHP [V81H], the abundance fitness was -0.073 ± 0.041. VRLVQFQKNTDEPMGITLKMNELNHCIVARIMHGGMIHRQGTLHVGDEIREINGISVANQTVEQLQKMLREMRGSITFKIYP [V81Y] showed an abundance fitness of -0.035 ± 0.038. Work on VRLVQFQKNTDEPMGITLKMNELNHCIVARIMHGGMIHRQGTLHVGDEIREINGISVANQTVEQLQKMLREMRGSITFKIMP [V81M] yielded an abundance fitness of -0.05 ± 0.038. Work on VRLVQFQKNTDEPMGITLKMNELNHCIVARIMHGGMIHRQGTLHVGDEIREINGISVANQTVEQLQKMLREMRGSITFKIFP [V81F] yielded an abundance fitness of -0.02 ± 0.038. For VRLVQFQKNTDEPMGITLKMNELNHCIVARIMHGGMIHRQGTLHVGDEIREINGISVANQTVEQLQKMLREMRGSITFKITP [V81T], the abundance fitness was -0.075 ± 0.034. VRLVQFQKNTDEPMGITLKMNELNHCIVARIMHGGMIHRQGTLHVGDEIREINGISVANQTVEQLQKMLREMRGSITFKINP [V81N] gave an abundance fitness of -0.118 ± 0.046. With VRLVQFQKNTDEPMGITLKMNELNHCIVARIMHGGMIHRQGTLHVGDEIREINGISVANQTVEQLQKMLREMRGSITFKIPP [V81P] the abundance fitness was -0.658 ± 0.08. Work on VRLVQFQKNTDEPMGITLKMNELNHCIVARIMHGGMIHRQGTLHVGDEIREINGISVANQTVEQLQKMLREMRGSITFKIAP [V81A] yielded an abundance fitness of -0.054 ± 0.034. Work on VRLVQFQKNTDEPMGITLKMNELNHCIVARIMHGGMIHRQGTLHVGDEIREINGISVANQTVEQLQKMLREMRGSITFKICP [V81C] yielded an abundance fitness of -0.036 ± 0.048. VRLVQFQKNTDEPMGITLKMNELNHCIVARIMHGGMIHRQGTLHVGDEIREINGISVANQTVEQLQKMLREMRGSITFKILP [V81L] gave an abundance fitness of 0.005 ± 0.027. VRLVQFQKNTDEPMGITLKMNELNHCIVARIMHGGMIHRQGTLHVGDEIREINGISVANQTVEQLQKMLREMRGSITFKIGP [V81G] showed an abundance fitness of -0.106 ± 0.041. Variant VRLVQFQKNTDEPMGITLKMNELNHCIVARIMHGGMIHRQGTLHVGDEIREINGISVANQTVEQLQKMLREMRGSITFKIEP [V81E] has an abundance fitness of -0.104 ± 0.046. Variant VRLVQFQKNTDEPMGITLKMNELNHCIVARIMHGGMIHRQGTLHVGDEIREINGISVANQTVEQLQKMLREMRGSITFKIIP [V81I] has an abundance fitness of -0.016 ± 0.039. In the case of VRLVQFQKNTDEPMGITLKMNELNHCIVARIMHGGMIHRQGTLHVGDEIREINGISVANQTVEQLQKMLREMRGSITFKIQP [V81Q], the abundance fitness is reported as -0.001 ± 0.048. VRLVQFQKNTDEPMGITLKMNELNHCIVARIMHGGMIHRQGTLHVGDEIREINGISVANQTVEQLQKMLREMRGSITFKIWP [V81W] showed an abundance fitness of -0.102 ± 0.046. Variant VRLVQFQKNTDEPMGITLKMNELNHCIVARIMHGGMIHRQGTLHVGDEIREINGISVANQTVEQLQKMLREMRGSITFKIVA [P82A] has an abundance fitness of -0.016 ± 0.046. VRLVQFQKNTDEPMGITLKMNELNHCIVARIMHGGMIHRQGTLHVGDEIREINGISVANQTVEQLQKMLREMRGSITFKIVD [P82D] showed an abundance fitness of -0.039 ± 0.07. Variant VRLVQFQKNTDEPMGITLKMNELNHCIVARIMHGGMIHRQGTLHVGDEIREINGISVANQTVEQLQKMLREMRGSITFKIVG [P82G] has an abundance fitness of -0.083 ± 0.067. With VRLVQFQKNTDEPMGITLKMNELNHCIVARIMHGGMIHRQGTLHVGDEIREINGISVANQTVEQLQKMLREMRGSITFKIVC [P82C] the abundance fitness was -0.072 ± 0.093. With VRLVQFQKNTDEPMGITLKMNELNHCIVARIMHGGMIHRQGTLHVGDEIREINGISVANQTVEQLQKMLREMRGSITFKIVE [P82E] the abundance fitness was -0.047 ± 0.076. In the case of VRLVQFQKNTDEPMGITLKMNELNHCIVARIMHGGMIHRQGTLHVGDEIREINGISVANQTVEQLQKMLREMRGSITFKLVP [I80L], the abundance fitness is reported as -0.113 ± 0.028. In the case of VRLVQFQKNTDEPMGITLKMNELNHCIVARIMHGGMIHRQGTLHVGDEIREINGISVANQTVEQLQKMLREMRGSITFKHVP [I80H], the abundance fitness is reported as -0.623 ± 0.073. VRLVQFQKNTDEPMGITLKMNELNHCIVARIMHGGMIHRQGTLHVGDEIREINGISVANQTVEQLQKMLREMRGSITFKNVP [I80N] gave an abundance fitness of -0.836 ± 0.14. Variant VRLVQFQKNTDEPMGITLKMNELNHCIVARIMHGGMIHRQGTLHVGDEIREINGISVANQTVEQLQKMLREMRGSITFKKVP [I80K] has an abundance fitness of -0.802 ± 0.15. In the case of VRLVQFQKNTDEPMGITLKMNELNHCIVARIMHGGMIHRQGTLHVGDEIREINGISVANQTVEQLQKMLREMRGSITFKTVP [I80T], the abundance fitness is reported as -0.142 ± 0.038. Work on VRLVQFQKNTDEPMGITLKMNELNHCIVARIMHGGMIHRQGTLHVGDEIREINGISVANQTVEQLQKMLREMRGSITFKWVP [I80W] yielded an abundance fitness of -0.383 ± 0.081. VRLVQFQKNTDEPMGITLKMNELNHCIVARIMHGGMIHRQGTLHVGDEIREINGISVANQTVEQLQKMLREMRGSITFKSVP [I80S] gave an abundance fitness of -0.424 ± 0.038. Work on VRLVQFQKNTDEPMGITLKMNELNHCIVARIMHGGMIHRQGTLHVGDEIREINGISVANQTVEQLQKMLREMRGSITFKMVP [I80M] yielded an abundance fitness of -0.169 ± 0.046. VRLVQFQKNTDEPMGITLKMNELNHCIVARIMHGGMIHRQGTLHVGDEIREINGISVANQTVEQLQKMLREMRGSITFKQVP [I80Q] gave an abundance fitness of -0.894 ± 0.13. Variant VRLVQFQKNTDEPMGITLKMNELNHCIVARIMHGGMIHRQGTLHVGDEIREINGISVANQTVEQLQKMLREMRGSITFKPVP [I80P] has an abundance fitness of -0.921 ± 0.08. Variant VRLVQFQKNTDEPMGITLKMNELNHCIVARIMHGGMIHRQGTLHVGDEIREINGISVANQTVEQLQKMLREMRGSITFKYVP [I80Y] has an abundance fitness of -0.188 ± 0.06. VRLVQFQKNTDEPMGITLKMNELNHCIVARIMHGGMIHRQGTLHVGDEIREINGISVANQTVEQLQKMLREMRGSITFKVVP [I80V] showed an abundance fitness of 0.012 ± 0.037. In the case of VRLVQFQKNTDEPMGITLKMNELNHCIVARIMHGGMIHRQGTLHVGDEIREINGISVANQTVEQLQKMLREMRGSITFKRVP [I80R], the abundance fitness is reported as -0.795 ± 0.081.

Source: the Human Domainome abundance scans (Beltran et al. 2025)
